Results reported in patent US20210196796A1 (SYNTHEKINE, published 2021).

T1: orthogonal hCD122 receptor (hoRb), hCD122 with H133D and Y134F (human, UniProt P14784 27-550)
T1 sequence: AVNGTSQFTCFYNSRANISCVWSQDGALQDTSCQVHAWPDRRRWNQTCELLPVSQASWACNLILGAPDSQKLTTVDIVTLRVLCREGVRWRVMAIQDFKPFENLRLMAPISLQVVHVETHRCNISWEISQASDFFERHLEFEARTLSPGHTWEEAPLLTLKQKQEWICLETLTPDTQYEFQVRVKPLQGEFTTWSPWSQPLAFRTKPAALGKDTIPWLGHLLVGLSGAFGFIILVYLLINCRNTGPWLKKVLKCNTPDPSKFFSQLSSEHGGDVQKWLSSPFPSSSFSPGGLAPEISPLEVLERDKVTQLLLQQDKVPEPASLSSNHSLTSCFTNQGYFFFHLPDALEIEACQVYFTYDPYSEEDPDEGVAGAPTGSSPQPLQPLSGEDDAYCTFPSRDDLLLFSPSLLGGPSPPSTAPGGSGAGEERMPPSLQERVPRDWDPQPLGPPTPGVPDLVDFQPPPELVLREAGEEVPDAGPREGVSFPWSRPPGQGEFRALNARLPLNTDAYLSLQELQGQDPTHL


Experiments:
[1] = biological target: T1, orthogonal hCD122 receptor (hoRb), …; assay: cell-based or functional assay
[2] = biological target: T1, orthogonal hCD122 receptor (hoRb), …; assay: cell-based or functional assay; remark: listed apart in the source
Wherever Relative Proliferation Fold Change 3F8 1:10 is given: reference of the scale not given here.
Wherever Relative Proliferation Fold Change 3F8 1:2 is given: reference of the scale not given here.
Wherever Relative Proliferation Fold Change 3F8 1:50 is given: reference of the scale not given here.
Wherever Relative Proliferation Fold Change NKL 1:10 is given: reference of the scale not given here.
Wherever Relative Proliferation Fold Change NKL 1:2 is given: reference of the scale not given here.
Wherever Relative Proliferation Fold Change NKL 1:50 is given: reference of the scale not given here.

| Binder | NKL Ortho Proliferation Signal 1:2 [1] | NKL Ortho Proliferation Signal 1:10 [1] | NKL Ortho Proliferation Signal 1:50 [1] | Relative Proliferation Fold Change NKL 1:2 [1] [fold] | Relative Proliferation Fold Change NKL 1:10 [1] [fold] | Relative Proliferation Fold Change NKL 1:50 [1] [fold] | 3F8 Ortho Proliferation Signal 1:2 [2] [cts/min] | 3F8 Ortho Proliferation Signal 1:10 [2] [cts/min] | 3F8 Ortho Proliferation Signal 1:50 [2] [cts/min] | Relative Proliferation Fold Change 3F8 1:2 [2] [fold] | Relative Proliferation Fold Change 3F8 1:10 [2] [fold] | Relative Proliferation Fold Change 3F8 1:50 [2] [fold] |
| --- | --- | --- | --- | --- | --- | --- | --- | --- | --- | --- | --- | --- |
| M39L, SQVLKA (ligand) APTSSSTKKTQLQLSQLLVLLKAILNGINNYKNPKLTRLLTFKFYMPKKATELKHLQCLEEELKPLEEVLNLAQSKNFHLRPRDLISNINVIVLELKGSETTFMCEYADETATIVEFLNRWITFCQSIISTLT | 57600 | 44100 | 21800 | 4.47 | 2.84 | 1.49 | 31200 | 24600 | 12200 | 179 | 76.7 | 37.1 |
| Q74H, SQVLKA (ligand) APTSSSTKKTQLQLSQLLVLLKAILNGINNYKNPKLTRMLTFKFYMPKKATELKHLQCLEEELKPLEEVLNLAHSKNFHLRPRDLISNINVIVLELKGSETTFMCEYADETATIVEFLNRWITFCQSIISTLT | 58300 | 50300 | 23000 | 3.89 | 3.18 | 1.6 | 35100 | 28700 | 21200 | 64.7 | 42.9 | 53 |
| T51I, SQVLKA (ligand) APTSSSTKKTQLQLSQLLVLLKAILNGINNYKNPKLTRMLTFKFYMPKKAIELKHLQCLEEELKPLEEVLNLAQSKNFHLRPRDLISNINVIVLELKGSETTFMCEYADETATIVEFLNRWITFCQSIISTLT | 50800 | 37900 | 18500 | 3.57 | 2.64 | 1.4 | 31900 | 20200 | 11600 | 111 | 43.1 | 15.6 |
| Q13W SQVLKA (ligand) APTSSSTKKTQLWLSQLLVLLKAILNGINNYKNPKLTRMLTFKFYMPKKATELKHLQCLEEELKPLEEVLNLAQSKNFHLRPRDLISNINVIVLELKGSETTFMCEYADETATIVEFLNRWITFCQSIISTLT | 13700 | 12900 | 8730 | 1.24 | 0.84 | 0.63 | 27000 | 16900 | 6420 | 148 | 22.2 | 10.9 |
| H55Y, SQVLKA (ligand) APTSSSTKKTQLQLSQLLVLLKAILNGINNYKNPKLTRMLTFKFYMPKKATELKYLQCLEEELKPLEEVLNLAQSKNFHLRPRDLISNINVIVLELKGSETTFMCEYADETATIVEFLNRWITFCQSIISTLT | 47100 | 37100 | 17800 | 3.72 | 2.34 | 1.22 | 24600 | 29500 | 16500 | 63 | 23.5 | 16.7 |
| F42K, SQVLKA (ligand) APTSSSTKKTQLQLSQLLVLLKAILNGINNYKNPKLTRMLTKKFYMPKKATELKHLQCLEEELKPLEEVLNLAQSKNFHLRPRDLISNINVIVLELKGSETTFMCEYADETATIVEFLNRWITFCQSIISTLT | 11900 | 10500 | 8730 | 0.83 | 0.6 | 0.52 | 10300 | 5760 | 1570 | 43.5 | 12.7 | 2.2 |
| M39V, SQVLKA (ligand) APTSSSTKKTQLQLSQLLVLLKAILNGINNYKNPKLTRVLTFKFYMPKKATELKHLQCLEEELKPLEEVLNLAQSKNFHLRPRDLISNINVIVLELKGSETTFMCEYADETATIVEFLNRWITFCQSIISTLT | 42800 | 31300 | 15300 | 2.72 | 1.85 | 0.92 | 29200 | 22900 | 9630 | 110 | 51.3 | 16.7 |

The next lines start with the values.

| NKL Ortho Proliferation Signal 1:2 [1] | NKL Ortho Proliferation Signal 1:10 [1] | NKL Ortho Proliferation Signal 1:50 [1] | Relative Proliferation Fold Change NKL 1:2 [1] [fold] | Relative Proliferation Fold Change NKL 1:10 [1] [fold] | Relative Proliferation Fold Change NKL 1:50 [1] [fold] | 3F8 Ortho Proliferation Signal 1:2 [2] [cts/min] | 3F8 Ortho Proliferation Signal 1:10 [2] [cts/min] | 3F8 Ortho Proliferation Signal 1:50 [2] [cts/min] | Relative Proliferation Fold Change 3F8 1:2 [2] [fold] | Relative Proliferation Fold Change 3F8 1:10 [2] [fold] | Relative Proliferation Fold Change 3F8 1:50 [2] [fold] | Binder |
| --- | --- | --- | --- | --- | --- | --- | --- | --- | --- | --- | --- | --- |
| 55100 | 47400 | 22600 | 4.23 | 3.18 | 1.67 | 34200 | 36400 | 21900 | 116 | 96.8 | 17.5 | Q74N, SQVLKA (ligand) APTSSSTKKTQLQLSQLLVLLKAILNGINNYKNPKLTRMLTFKFYMPKKATELKHLQCLEEELKPLEEVLNLANSKNFHLRPRDLISNINVIVLELKGSETTFMCEYADETATIVEFLNRWITFCQSIISTLT |
| 54600 | 65700 | 35000 | 4.07 | 4.17 | 2.44 | 36400 | 32500 | 27100 | 18.7 | 56.7 | 33.8 | Q74S, SQVLKA (ligand) APTSSSTKKTQLQLSQLLVLLKAILNGINNYKNPKLTRMLTFKFYMPKKATELKHLQCLEEELKPLEEVLNLASSKNFHLRPRDLISNINVIVLELKGSETTFMCEYADETATIVEFLNRWITFCQSIISTLT |
| 62500 | 51600 | 24300 | 4.26 | 3.13 | 1.58 | 34900 | 34800 | 21200 | 30.6 | 38 | 32.7 | L80V, SQVLKA (ligand) APTSSSTKKTQLQLSQLLVLLKAILNGINNYKNPKLTRMLTFKFYMPKKATELKHLQCLEEELKPLEEVLNLAQSKNFHVRPRDLISNINVIVLELKGSETTFMCEYADETATIVEFLNRWITFCQSIISTLT |
| 61200 | 67800 | 33200 | 4.24 | 4.14 | 2.27 | 37200 | 26800 | 25800 | 1.01 | 2.8 | 16.8 | L80F, SQVLKA (ligand) APTSSSTKKTQLQLSQLLVLLKAILNGINNYKNPKLTRMLTFKFYMPKKATELKHLQCLEEELKPLEEVLNLAQSKNFHFRPRDLISNINVIVLELKGSETTFMCEYADETATIVEFLNRWITFCQSIISTLT |
| 12100 | 10100 | 7780 | 1 | 0.71 | 0.58 | 9940 | 7070 | 1060 | 59.1 | 8.73 | 2.17 | ΔT51, SQVLKA (ligand) APTSSSTKKTQLQLSQLLVLLKAILNGINNYKNPKLTRMLTFKFYMPKKAELKHLQCLEEELKPLEEVLNLAQSKNFHLRPRDLISNINVIVLELKGSETTFMCEYADETATIVEFLNRWITFCQSIISTLT |
